The target of this experiment is purified HLA-B7 (human). Description: competition with iodinated … for purified HLA-B7.

Usually IC50 stands for the point on the concentration scale where inhibition reaches its midpoint. Read a low IC50 as inhibition by little substance.

B1: SMCX peptide SPAVDKAQAEL (peptide)
peptide: SPAVDKAQAEL
notes: Synthetic, HPLC-purified peptide; Differs from the SMCY peptide by A for S at position 3 and Q for R at position 8; also called peptide derived from the X chromosomal homolog SMCX (XE169)
B1: the IC50 stood at 140 nM.

On to SPSVDKARAEL (also called H-Y peptide; peptide 1171) [SMCY peptide SPSVDKARAEL], for which the IC50 is 34 nM.

(Values after patent US7008922 (RIJKSUNIVERSITEIT TE LEIDEN, dated 2006).)
